Paper PMC3073974, “A Model of a MAPK•Substrate Complex in an Active Conformation: A Computational and Experimental Approach” (PLoS ONE, 2011)
Residues, ends and D or L forms follow the SMILES beside them.

How the values were obtained:
[1] = target: T1, ERK2 (Rattus norvegicus, UniProt P63086); assay: Steady-state kinetics: inhibition of Ets phosphorylation by ERK2; assay type: biochemical; conditions: 1 mM MgATP
T1 construct: made in house
Protocol: Activated tagless ERK2 was generated essentially as described in (Kaoud, T.S. et al. manuscript in preparation). Expression and purification of Ets-1 (1-138) was followed by the method described in the previously published literature.
(§1) zReactions were carried out at 27°C in kinase assay buffer (25 mM HEPES pH 7.4, 100 mM KCl, 2 mM DTT, 40 µg/mL BSA, and 20 mM MgCl2) containing 2 nM ERK2 and varied concentrations of substrates and inhibitors. Rates were measured under conditions where total product formation represented less than 10% of the initial substrate concentrations. The reaction was incubated for 10 min before initiation by addition of enzyme and quantified as described previously. Initial rates were determined by linear least squares fitting to plots of product against time. Reciprocal plots of 1/v against 1/s were checked for linearity, before the data were fitted to eqn. 1 using a non-linear least squares approach, assuming equal variance for velocities, using the program Kaleidagraph 3.5 (Synergy software). The intercepts [drawing 1] and slopes [drawing 2] obtained from these fits were then plotted against either the inhibitor concentration (i) (for inhibition experiments) or the reciprocal of the non-varied substrate concentration (1/s) (for initial velocity experiments). These plots were used to determine the appearance of the overall kinetic equation. Values for kinetic constants were then obtained using the program Scientist (Micromath) by fitting the kinetic data to the relevant over-all equation. Data conforming to a sequential initial velocity pattern were fitted to eqn 2; data conforming to linear competitive inhibition were fitted to eqn. 3; data conforming to hyperbolic mixed inhibition were fitted to eqn. 4. Dose-response curves for data conforming to linear inhibition were fitted to eqn. 5; and for data conforming to hyperbolic inhibition to eqn. 6. [drawing 3] (1) [drawing 4] (2) [drawing 5] (3) [drawing 6] (4) [drawing 7] (5) [drawing 8] (6)

[2] = target: T1, ERK2; assay: Steady-state kinetics: inhibition of Δ23N-Ets phosphorylation by ERK2; assay type: biochemical; conditions: Δ23N-Ets 50 µM, 1 mM MgATP, Lig-D 0–200 µM (eqn 6) or Lig-F 0–400 µM (eqn 5); fitted k0 5.5±0.1 s^−1 (Lig-D), 5.4±0.1 s^−1 (Lig-F); read-out: K50, concentration giving half the maximal change in kobs for phosphorylation of Δ23N-Ets
Protocol: as §1, with “Data conforming to a sequential initial velocity pattern were fitted to eqn 2; data conforming to linear competitive inhibition were fitted to eqn. 3; data conforming to hyperbolic mixed inhibition were fitted to eqn. 4. Dose-response curves for data conforming to linear inhibition were fitted to eqn. 5; and for data conforming to hyperbolic inhibition to eqn. 6. [drawing 3] (1) [drawing 4] (2) [drawing 5] (3) [drawing 6] (4) [drawing 7] (5) [drawing 8] (6)” left out

[3] = target: T1, ERK2; assay: Steady-state parameters for phosphorylation of Ets and N-terminal Ets mutants by ERK2; assay type: biochemical; conditions: phosphorylation by ERK2 (2 nM), 27°C
Protocol: pET-28a Ets was PCR amplified with a forward primer containing an NdeI site (encoding the initial methionine) followed by the codon encoding Phe-24 (5′-GG GAATTCCATATGTTCCCTTCCCCGGACATG-3′) and an outer reverse primer (5′-GCTAGTTATTGCTCAGCGGTGG-3′) using the following PCR conditions: 94°C for 5 min to denature the complementary strands; 30 cycles of 55°C for 30 sec to anneal the primers, extension for 1 min at 72°C, followed by a denaturation step at 94°C for 45 sec; complementary strands were extended a final 10 min at 72°C. The N-terminal mutant PCR product was digested with NdeI and HindIII and ligated into NdeI-HindIII digested pET-28a. All proteins produced from pET-28a have an N-terminal sequence of […]- prior to the initial methionine encoded by the Ets cDNA giving EtsΔ24-138 an approximate mass of 15, 391 Da whereas Ets 1-138 has a mass of 17, 681 Da (lacking the initial methionine).
pET28a-Ets was modified by overlap extension polymerase chain reaction to construct the single cysteine mutant of Ets (C99A/C106A/C112A) in an Ets S26A background as reported elsewhere. Mutations were produced by a single-step PCR reaction using the following PCR amplification reaction (50 µL) contained Phusion DNA polymerase GC buffer, 200 µM each of the four deoxynucleoside triphosphates, 2 mM MgCl2, 3% DMSO, 80 ng of template DNA (Ets-C31 pET28a vector), 0.5 µM primers forward and reverse, and 1 µL of Phusion DNA polymerase (Finnzymes, USA, Product # F-530-S). […]
zReactions were carried out at 27°C in kinase assay buffer (25 mM HEPES pH 7.4, 100 mM KCl, 2 mM DTT, 40 µg/mL BSA, and 20 mM MgCl2) containing 2 nM ERK2 and varied concentrations of substrates and inhibitors. Rates were measured under conditions where total product formation represented less than 10% of the initial substrate concentrations. The reaction was incubated for 10 min before initiation by addition of enzyme and quantified as described previously. Initial rates were determined by linear least squares fitting to plots of product against time. […]

[4] = target: T1, ERK2; conditions: stopped-flow; cited from earlier work
Text: Since the seminal paper by Wright the role of intrinsically disordered regions of proteins has been a topic of great interest. […] In fact, many docking sites for the DRS of a MAPK are found at the extreme termini of MAPK ligands, such as the upstream activators the MKKs, and may be disordered. For examp ...

[5] = fit of Lig-D inhibition data (Fig. 5D), eqn 4, Ets 3–59 µM
[6] = fit of Lig-F inhibition data (Fig. 5B), eqn 3, Ets 2–12 µM
[7] = 25 mM HEPES pH 7.4, 100 mM KCl, 20 mM MgCl2

T1 sequence (P63086 whole entry): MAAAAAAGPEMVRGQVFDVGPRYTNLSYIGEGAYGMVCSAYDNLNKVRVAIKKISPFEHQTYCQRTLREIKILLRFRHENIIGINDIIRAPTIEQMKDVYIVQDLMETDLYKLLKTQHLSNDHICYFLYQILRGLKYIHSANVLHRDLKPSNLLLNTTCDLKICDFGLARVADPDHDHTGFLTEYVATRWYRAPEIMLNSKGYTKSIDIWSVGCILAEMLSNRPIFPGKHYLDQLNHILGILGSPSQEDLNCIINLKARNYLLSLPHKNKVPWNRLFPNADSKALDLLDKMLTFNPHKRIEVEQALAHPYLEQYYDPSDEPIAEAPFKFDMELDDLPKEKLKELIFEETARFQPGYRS

CC(=O)N[C@@H](Cc1ccc(O)cc1)C(=O)N[C@@H](C)C(=O)N1CCC[C@H]1C(=O)N[C@@H](CCCNC(=N)N)C(=O)N[C@@H](C)C(=O)N1CCC[C@H]1C(=O)N[C@@H](C)C(=O)N[C@@H](CCCCN)C(=O)N[C@@H](CC(C)C)C(=O)N[C@@H](C)C(=O)N[C@@H](Cc1ccccc1)C(=O)N[C@@H](CCC(N)=O)C(=O)N[C@@H](Cc1ccccc1)C(=O)N1CCC[C@H]1C(=O)N[C@@H](CO)C(=O)N[C@@H](CCCNC(=N)N)C(N)=O [Lig-F] (Ac-YAPRAPAKLAFQFPSR-NH2) gave an IC50 ([1]; Ets 6.4 µM, peptide 0–400 µM, 2 nM ERK2, 27°C, HEPES pH 7.4, fit eqn 6 (Lig-D, partial) or eqn 5 (Lig-F, full), fitted k0 8.0±0.2 s^−1 (Lig-D), 10.3±0.2 s^−1 (Lig-F), read-out: K50, concentration giving half the maximal change in kobs for phosphorylation of Ets) of 33.5 ± 1.9 µM, a Ki ([1]; Lig-F 0–200 µM, Ets 2–12 µM, fit eqn 3, read-out: apparent competitive inhibition constant (Ki), full linear competitive inhibition vs Ets) of 22 ± 1.9 µM and an IC50 [2] of 43 ± 2 µM.

B1: Ets: His-tagged murine Ets-1 residues 1-138, ERK2 substrate; N-terminus MKAAVDLKPTLTII (protein, UniProt P27577 1-138, looked up, fragment)
chain: MKAAVDLKPTLTIIKTEKVDLELFPSPDMECADVPLLTPSSKEMMSQALKATFSGFTKEQQRLGIPKDPRQWTETHVRDWVMWAVNEFSLKGVDFQKFCMSGAALCALGKECFLELAPDFVGDILWEHLEILQKEDVK
modifications: His tag
With B1 the “apparent Michaelis constant for Ets” value [1, 5] was 6.3 ± 1.7 µM, the “apparent catalytic constant for Ets phosphorylation” value [1, 5] was 14.1 ± 1.3 s⁻¹ and the “apparent Michaelis constant for Ets” value [1, 6] was 5.6 ± 0.7 µM. For the same molecule, the “apparent catalytic constant for Ets phosphorylation” value [1, 6] was 14.9 ± 0.8 s⁻¹, the “k cat/K m” value ([3]; 25 mM HEPES pH 7.4) was 1e+06 M⁻¹ s⁻¹ and the K m [3, 7] was 17.0 ± 4.0 µM. The k cat [3, 7] was 18.0 ± 2.0 s⁻¹.

B2: phospho Ets: Ets phosphorylated by ERK2 (on Thr-38), product of the reaction (protein, UniProt P27577 1-138, looked up, fragment)
chain: B1 chain
modifications: phosphorylated Thr38; His tag
notes: Ets phosphorylated by ERK2 (on Thr-38), product of the reaction
In the case of B2, the “rate constant for association k on” value [4] is given as 5e+06 M⁻¹ s⁻¹ and the “rate constant for dissociation k” value [4] is given as > 100 s⁻¹.
